Measurements as given in patent publication US20230220042A1 (SHANGHAI JIAO TONG UNIVERSITY SCHOOL OF MEDICINE, published 2023).
Residue numbers refer to the chain shown, from its start. Names and notes keep the numbering of the source.

B1: human IgG2 anti-mouse CD40 surface displayed antibody, P233G/S267E/S298G (antibody)
light chain (with the P2A rest): DTVLTQSPALAVSPGERVTISCRASDSVSTLMHWYQQKPGQQPKLLIYLASHLESGVPARFSGSGSGTDFTLTIDPVEADDTATYYCQQSWNDPWTFGGGTKLELKRTVAAPSVFIFPPSDEQLKSGTASVVCLLNNFYPREAKVQWKVDNALQSGNSQESVTEQDSKDSTYSLSSTLTLSKADYEKHKVYACEVTHQGLSSPVTKSFNRGECGSGATNFSLLKQAGDVEENPG
heavy: EVQLVESDGGLVQPGRSLKLPCAASGFTFSDYYMAWVRQAPTKGLEWVASISYDGSSTYYRDSVKGRFTISRDNAKSTLYLQMDSLRSEDTATYYCGRHSSYFDYWGQGVMVTVSSASTKGPSVFPLAPCSRSTSESTAALGCLVKDYFPEPVTVSWNSGALTSGVHTFPAVLQSSGLYSLSSVVTVPSSNFGTQTYTCNVDHKPSNTKVDKTVERKCCVECPPCPAPGVAGPSVFLFPPKPKDTLMISRTPEVTCVVVDVEHEDPEVQFNWYVDGVEVHNAKTKPREEQFNGTFRVVSVLTVVHQDWLNGKEYKCKVSNKGLPAPIEKTISKTKGQPREPQVYTLPPSREEMTKNQVSLTCLVKGFYPSDIAVEWESNGQPENNYKTTPPMLDSDGSFFLYSKLTVDKSRWQQGNVFSCSVMHEALHNHYTQKSLSLSPGKLEPPPSTVSNMATVAVLVVLGAAIVTGAVVAFVMKMRRRNTGGKGGDYALAPGSQTSDLSLPDCKVMVHDPHSLA
notes: As m1 with the Fc mutations; copies: 2 + 2
B2: human IgG2 anti-mouse CD40 surface displayed antibody, S267E/A330S (antibody, name in EU numbering)
light chain (with the P2A rest): B1 light chain (with the P2A rest)
heavy chain: B1 heavy with G229P, G293S, A325S
notes: As m1 with the Fc mutations

Experiments:
Biotin-FcγRIIB (human) = Biotin-FcγRIIB (human) (UniProt P31994); experiment: NGS of 3T3 display library Cmix flow-sorted for FcγRIIB binding
Biotin-FcγRIIB = target: T1, Biotin-FcγRIIB (human, UniProt P31994 43-217, limits assumed, biotin label); experiment: NGS of 3T3 display library IgG2_C01 flow-sorted for FcγRIIB binding
T1 construct: Soluble labelled protein used to stain and sort the display cells; also called human FcγRIIB; CD32b
T1 sequence (looked up): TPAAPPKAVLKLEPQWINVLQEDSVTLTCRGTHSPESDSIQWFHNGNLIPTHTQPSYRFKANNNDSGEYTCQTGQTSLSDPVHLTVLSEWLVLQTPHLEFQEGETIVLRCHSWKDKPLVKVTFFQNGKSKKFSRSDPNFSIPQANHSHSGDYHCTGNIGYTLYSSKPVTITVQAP
Source text: Then flow cytometry is used for sorting the cells with high affinity to FcγRIIB for two to three rounds. […] IgG2_C01 is a combined mutation (Type I) library having at most 1 mutation in each of the four regions of P233-V240, V266-P271, S298-T299, and G327-I332; IgG2_C02 is a cell library made by combining the combined mutation (Type II) libraries of four regions of P233-V240, V266-P271, S298-T299 and G327-I332 together and transferring it into 3T3 cells.

Molecule | enrichment factor, percentage after 3rd sorting/percentage after 2nd sorting (Biotin-FcγRIIB (human)) | percentage after 2nd sorting (Biotin-FcγRIIB (human)) [%] | percentage after 3rd sorting (Biotin-FcγRIIB (human)) [%] | enrichment factor, percentage after 2nd sorting/percentage after 1st sorting (Biotin-FcγRIIB (human)) | percentage after 1st sorting (Biotin-FcγRIIB (human)) [%] | enrichment factor, percentage after 2nd sorting/percentage after 1st sorting (Biotin-FcγRIIB) [ratio] | percentage after 1st sorting (Biotin-FcγRIIB) [%] | percentage after 2nd sorting (Biotin-FcγRIIB) [%] | also measured
human IgG2 anti-mouse CD40 surface displayed antibody, V234M/S267E/S298L/L328W | 5.13 | 0.1 | 0.53 |  |  |  |  |  | 
human IgG2 anti-mouse CD40 surface displayed antibody, V234M/S267E/S298G/I332L | 0.66 | 0.46 | 0.3 | 64.4 | 0.01 |  |  |  | enrichment factor, percentage after 1st sorting/percentage before sorting (Biotin-FcγRIIB (human)): 16.5; enrichment factor, percentage after 3rd sorting/percentage before sorting (Biotin-FcγRIIB (human)): 695; increased factor, mutant enrichment factor/wild-type enrichment factor (Biotin-FcγRIIB (human)): 1850; percentage before sorting (Biotin-FcγRIIB (human)): 0%
human IgG2 anti-mouse CD40 surface displayed antibody, P233F/V266L/S298L/L328W | 1.79 | 0.16 | 0.29 | 94.7 | 0 |  |  |  | 
human IgG2 anti-mouse CD40 surface displayed antibody, A235W/V266L/S298L/L328W | 4.67 | 0.05 | 0.22 | 70.1 | 0 |  |  |  | 
B1 |  |  |  |  |  | 38.5 | 0.01 | 0.2 | enrichment factor, percentage after 1st sorting/percentage before sorting (Biotin-FcγRIIB): 7.13 ratio; enrichment factor, percentage after 2nd sorting/percentage before sorting (Biotin-FcγRIIB): 274 ratio; increased factor, mutant enrichment factor/wild-type enrichment factor (Biotin-FcγRIIB): 323 ratio
B2 |  |  |  |  |  | 43.1 | 0 | 0.03 | 
